The target of experiment [1] is human angiotensin-converting enzyme 2 ectodomain (human) (UniProt Q9BYF1). The experiment in a line: SPR. (In general: SPR reads the build-up and loss of mass on a sensor chip optically.)
In experiment [2] the target is Rhinolophus affinis angiotensin-converting enzyme 2 ectodomain (Rhinolophus affinis). In words: SPR.

pKd: −log10 of the molar value.

UniProt Q9BYF1, sequence (Q9BYF1 19-615): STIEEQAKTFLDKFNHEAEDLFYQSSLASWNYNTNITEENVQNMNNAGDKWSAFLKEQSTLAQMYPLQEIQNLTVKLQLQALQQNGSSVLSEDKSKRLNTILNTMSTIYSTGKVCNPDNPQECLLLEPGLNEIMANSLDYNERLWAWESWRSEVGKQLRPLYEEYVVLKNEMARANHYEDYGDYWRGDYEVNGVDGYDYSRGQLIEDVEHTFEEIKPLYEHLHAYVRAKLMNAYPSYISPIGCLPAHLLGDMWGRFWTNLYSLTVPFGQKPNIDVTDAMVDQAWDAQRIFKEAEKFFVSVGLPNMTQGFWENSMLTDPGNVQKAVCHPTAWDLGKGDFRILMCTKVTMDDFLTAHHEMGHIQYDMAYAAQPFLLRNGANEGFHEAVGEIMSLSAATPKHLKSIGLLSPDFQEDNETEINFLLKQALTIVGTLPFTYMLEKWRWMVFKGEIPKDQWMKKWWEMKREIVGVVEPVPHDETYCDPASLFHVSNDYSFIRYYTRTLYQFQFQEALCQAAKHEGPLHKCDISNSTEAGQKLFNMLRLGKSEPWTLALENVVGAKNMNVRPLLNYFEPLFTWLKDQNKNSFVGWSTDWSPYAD

Turning to “RaTG13 spike receptor binding domain (domain or fragment)”, the results for the pKd in experiment [1] and in experiment [2] were 7.68 and 7.92, respectively.

The values are drawn from doi:10.1101/2021.08.11.455960.
